Source: patent publication US20220298218A1 (ANTAG THERAPEUTICS, published 2022)
*1 amine or outer side, *2 acyl side, *3 side chain or, on linkers, in order; H or OH if unused. Where no end group is shown, it is not given here. Side-chain parts run from the residue outwards. The star is where a group is joined. C18 diacid = O=C(O)CCCCCCCCCCCCCCCCC(=O)*; C16 diacid = O=C(O)CCCCCCCCCCCCCCC(=O)*; γGlu = O=C(O)[C@H](CCC(=O)[*:2])N[*:1]; PEG = not defined here; AEEA = NCCOCCOCC(=O)O

B1: AT594 (peptide)
peptide: EGTFISDYSIAMDKIHQK([AEEA-AEEA-γGlu-C18 diacid])DFVNWLLAQKPSSGAPPPS-NH2
modifications: N-terminus assumed
SMILES: CC[C@H](C)[C@H](NC(=O)[C@H](CO)NC(=O)[C@H](Cc1ccc(O)cc1)NC(=O)[C@H](CC(=O)O)NC(=O)[C@H](CO)NC(=O)[C@@H](NC(=O)[C@H](Cc1ccccc1)NC(=O)[C@@H](NC(=O)CNC(=O)[C@@H](N)CCC(=O)O)[C@@H](C)O)[C@@H](C)CC)C(=O)N[C@@H](C)C(=O)N[C@@H](CCSC)C(=O)N[C@@H](CC(=O)O)C(=O)N[C@@H](CCCCN)C(=O)N[C@H](C(=O)N[C@@H](Cc1c[nH]cn1)C(=O)N[C@@H](CCC(N)=O)C(=O)N[C@@H](CCCCNC(=O)COCCOCCNC(=O)COCCOCCNC(=O)CC[C@H](NC(=O)CCCCCCCCCCCCCCCCC(=O)O)C(=O)O)C(=O)N[C@@H](CC(=O)O)C(=O)N[C@@H](Cc1ccccc1)C(=O)N[C@H](C(=O)N[C@@H](CC(N)=O)C(=O)N[C@@H](Cc1c[nH]c2ccccc12)C(=O)N[C@@H](CC(C)C)C(=O)N[C@@H](CC(C)C)C(=O)N[C@@H](C)C(=O)N[C@@H](CCC(N)=O)C(=O)N[C@@H](CCCCN)C(=O)N1CCC[C@H]1C(=O)N[C@@H](CO)C(=O)N[C@@H](CO)C(=O)NCC(=O)N[C@@H](C)C(=O)N1CCC[C@H]1C(=O)N1CCC[C@H]1C(=O)N1CCC[C@H]1C(=O)N[C@@H](CO)C(N)=O)C(C)C)[C@@H](C)CC
B2: AT591 (peptide)
peptide: EGTFISDYSIAMDKIK([AEEA-AEEA-γGlu-C18 diacid])QQDFVNWLLAGGPSSGAPPPS-NH2
modifications: N-terminus assumed
SMILES: CC[C@H](C)[C@H](NC(=O)[C@H](CO)NC(=O)[C@H](Cc1ccc(O)cc1)NC(=O)[C@H](CC(=O)O)NC(=O)[C@H](CO)NC(=O)[C@@H](NC(=O)[C@H](Cc1ccccc1)NC(=O)[C@@H](NC(=O)CNC(=O)[C@@H](N)CCC(=O)O)[C@@H](C)O)[C@@H](C)CC)C(=O)N[C@@H](C)C(=O)N[C@@H](CCSC)C(=O)N[C@@H](CC(=O)O)C(=O)N[C@@H](CCCCN)C(=O)N[C@H](C(=O)N[C@@H](CCCCNC(=O)COCCOCCNC(=O)COCCOCCNC(=O)CC[C@H](NC(=O)CCCCCCCCCCCCCCCCC(=O)O)C(=O)O)C(=O)N[C@@H](CCC(N)=O)C(=O)N[C@@H](CCC(N)=O)C(=O)N[C@@H](CC(=O)O)C(=O)N[C@@H](Cc1ccccc1)C(=O)N[C@H](C(=O)N[C@@H](CC(N)=O)C(=O)N[C@@H](Cc1c[nH]c2ccccc12)C(=O)N[C@@H](CC(C)C)C(=O)N[C@@H](CC(C)C)C(=O)N[C@@H](C)C(=O)NCC(=O)NCC(=O)N1CCC[C@H]1C(=O)N[C@@H](CO)C(=O)N[C@@H](CO)C(=O)NCC(=O)N[C@@H](C)C(=O)N1CCC[C@H]1C(=O)N1CCC[C@H]1C(=O)N1CCC[C@H]1C(=O)N[C@@H](CO)C(N)=O)C(C)C)[C@@H](C)CC
B3: AT593 (peptide)
peptide: EGTFISDYSIAMDKIK([AEEA-AEEA-γGlu-C18 diacid])QQDFVNWLLAQPSSGAPPPS-NH2
modifications: N-terminus assumed
SMILES: CC[C@H](C)[C@H](NC(=O)[C@H](CO)NC(=O)[C@H](Cc1ccc(O)cc1)NC(=O)[C@H](CC(=O)O)NC(=O)[C@H](CO)NC(=O)[C@@H](NC(=O)[C@H](Cc1ccccc1)NC(=O)[C@@H](NC(=O)CNC(=O)[C@@H](N)CCC(=O)O)[C@@H](C)O)[C@@H](C)CC)C(=O)N[C@@H](C)C(=O)N[C@@H](CCSC)C(=O)N[C@@H](CC(=O)O)C(=O)N[C@@H](CCCCN)C(=O)N[C@H](C(=O)N[C@@H](CCCCNC(=O)COCCOCCNC(=O)COCCOCCNC(=O)CC[C@H](NC(=O)CCCCCCCCCCCCCCCCC(=O)O)C(=O)O)C(=O)N[C@@H](CCC(N)=O)C(=O)N[C@@H](CCC(N)=O)C(=O)N[C@@H](CC(=O)O)C(=O)N[C@@H](Cc1ccccc1)C(=O)N[C@H](C(=O)N[C@@H](CC(N)=O)C(=O)N[C@@H](Cc1c[nH]c2ccccc12)C(=O)N[C@@H](CC(C)C)C(=O)N[C@@H](CC(C)C)C(=O)N[C@@H](C)C(=O)N[C@@H](CCC(N)=O)C(=O)N1CCC[C@H]1C(=O)N[C@@H](CO)C(=O)N[C@@H](CO)C(=O)NCC(=O)N[C@@H](C)C(=O)N1CCC[C@H]1C(=O)N1CCC[C@H]1C(=O)N1CCC[C@H]1C(=O)N[C@@H](CO)C(N)=O)C(C)C)[C@@H](C)CC
B4: AT613 (peptide)
peptide: EGTFISEYSIAMEKIK(C16 diacid)QQEFVQWLLAQKPSSGAPPPS-OH
modifications: N-terminus assumed
SMILES: CC[C@H](C)[C@H](NC(=O)[C@H](CO)NC(=O)[C@H](Cc1ccc(O)cc1)NC(=O)[C@H](CCC(=O)O)NC(=O)[C@H](CO)NC(=O)[C@@H](NC(=O)[C@H](Cc1ccccc1)NC(=O)[C@@H](NC(=O)CNC(=O)[C@@H](N)CCC(=O)O)[C@@H](C)O)[C@@H](C)CC)C(=O)N[C@@H](C)C(=O)N[C@@H](CCSC)C(=O)N[C@@H](CCC(=O)O)C(=O)N[C@@H](CCCCN)C(=O)N[C@H](C(=O)N[C@@H](CCCCNC(=O)CCCCCCCCCCCCCCC(=O)O)C(=O)N[C@@H](CCC(N)=O)C(=O)N[C@@H](CCC(N)=O)C(=O)N[C@@H](CCC(=O)O)C(=O)N[C@@H](Cc1ccccc1)C(=O)N[C@H](C(=O)N[C@@H](CCC(N)=O)C(=O)N[C@@H](Cc1c[nH]c2ccccc12)C(=O)N[C@@H](CC(C)C)C(=O)N[C@@H](CC(C)C)C(=O)N[C@@H](C)C(=O)N[C@@H](CCC(N)=O)C(=O)N[C@@H](CCCCN)C(=O)N1CCC[C@H]1C(=O)N[C@@H](CO)C(=O)N[C@@H](CO)C(=O)NCC(=O)N[C@@H](C)C(=O)N1CCC[C@H]1C(=O)N1CCC[C@H]1C(=O)N1CCC[C@H]1C(=O)N[C@@H](CO)C(=O)O)C(C)C)[C@@H](C)CC
B5: AT592 (peptide)
peptide: EGTFISDYSIAMDKIK([AEEA-AEEA-γGlu-C18 diacid])QQDFVNWLLAGGPSSGAPPPS-OH
modifications: N-terminus assumed
SMILES: CC[C@H](C)[C@H](NC(=O)[C@H](CO)NC(=O)[C@H](Cc1ccc(O)cc1)NC(=O)[C@H](CC(=O)O)NC(=O)[C@H](CO)NC(=O)[C@@H](NC(=O)[C@H](Cc1ccccc1)NC(=O)[C@@H](NC(=O)CNC(=O)[C@@H](N)CCC(=O)O)[C@@H](C)O)[C@@H](C)CC)C(=O)N[C@@H](C)C(=O)N[C@@H](CCSC)C(=O)N[C@@H](CC(=O)O)C(=O)N[C@@H](CCCCN)C(=O)N[C@H](C(=O)N[C@@H](CCCCNC(=O)COCCOCCNC(=O)COCCOCCNC(=O)CC[C@H](NC(=O)CCCCCCCCCCCCCCCCC(=O)O)C(=O)O)C(=O)N[C@@H](CCC(N)=O)C(=O)N[C@@H](CCC(N)=O)C(=O)N[C@@H](CC(=O)O)C(=O)N[C@@H](Cc1ccccc1)C(=O)N[C@H](C(=O)N[C@@H](CC(N)=O)C(=O)N[C@@H](Cc1c[nH]c2ccccc12)C(=O)N[C@@H](CC(C)C)C(=O)N[C@@H](CC(C)C)C(=O)N[C@@H](C)C(=O)NCC(=O)NCC(=O)N1CCC[C@H]1C(=O)N[C@@H](CO)C(=O)N[C@@H](CO)C(=O)NCC(=O)N[C@@H](C)C(=O)N1CCC[C@H]1C(=O)N1CCC[C@H]1C(=O)N1CCC[C@H]1C(=O)N[C@@H](CO)C(=O)O)C(C)C)[C@@H](C)CC
B6: AT614 (peptide)
peptide: EGTFISEYSIAMEKIK(C16 diacid)QQDFVEWLLAQKPSSGAPPPS-OH
modifications: N-terminus assumed
SMILES: CC[C@H](C)[C@H](NC(=O)[C@H](CO)NC(=O)[C@H](Cc1ccc(O)cc1)NC(=O)[C@H](CCC(=O)O)NC(=O)[C@H](CO)NC(=O)[C@@H](NC(=O)[C@H](Cc1ccccc1)NC(=O)[C@@H](NC(=O)CNC(=O)[C@@H](N)CCC(=O)O)[C@@H](C)O)[C@@H](C)CC)C(=O)N[C@@H](C)C(=O)N[C@@H](CCSC)C(=O)N[C@@H](CCC(=O)O)C(=O)N[C@@H](CCCCN)C(=O)N[C@H](C(=O)N[C@@H](CCCCNC(=O)CCCCCCCCCCCCCCC(=O)O)C(=O)N[C@@H](CCC(N)=O)C(=O)N[C@@H](CCC(N)=O)C(=O)N[C@@H](CC(=O)O)C(=O)N[C@@H](Cc1ccccc1)C(=O)N[C@H](C(=O)N[C@@H](CCC(=O)O)C(=O)N[C@@H](Cc1c[nH]c2ccccc12)C(=O)N[C@@H](CC(C)C)C(=O)N[C@@H](CC(C)C)C(=O)N[C@@H](C)C(=O)N[C@@H](CCC(N)=O)C(=O)N[C@@H](CCCCN)C(=O)N1CCC[C@H]1C(=O)N[C@@H](CO)C(=O)N[C@@H](CO)C(=O)NCC(=O)N[C@@H](C)C(=O)N1CCC[C@H]1C(=O)N1CCC[C@H]1C(=O)N1CCC[C@H]1C(=O)N[C@@H](CO)C(=O)O)C(C)C)[C@@H](C)CC

What follows are binders tested against T1, human GIP receptor (human, UniProt P48546 22-466) (assay: cell-based or functional assay).
T1 sequence (looked up): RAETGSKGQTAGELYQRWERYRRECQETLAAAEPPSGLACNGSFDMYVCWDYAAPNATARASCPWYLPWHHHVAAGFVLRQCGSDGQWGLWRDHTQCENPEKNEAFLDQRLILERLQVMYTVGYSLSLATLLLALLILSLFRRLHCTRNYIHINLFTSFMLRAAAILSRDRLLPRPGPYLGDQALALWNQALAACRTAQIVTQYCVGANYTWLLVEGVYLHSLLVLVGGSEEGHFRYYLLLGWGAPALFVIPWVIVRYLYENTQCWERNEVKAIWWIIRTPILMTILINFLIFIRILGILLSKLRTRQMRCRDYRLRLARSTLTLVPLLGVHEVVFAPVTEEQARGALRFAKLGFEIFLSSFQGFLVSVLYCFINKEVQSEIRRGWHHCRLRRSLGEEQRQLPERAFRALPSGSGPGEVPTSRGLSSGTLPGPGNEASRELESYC

| Binder | cAMP agonism % Emax [%] | cAMP antagonism [nM] | cAMP antagonism % inhib [%] | cAMP antagonism pIC50 |
| --- | --- | --- | --- | --- |
| B1 | 0 | 79.4 | 80 | 7.1 |
| B2 | 0 | 21.5 | 92 | 7.7 |
| B3 | 0 | 63.1 | 86 | 7.2 |
| TFISDYK([PEG-PEG-γGlu-C18 diacid])IAMDKIHQQDFVNWLLAQKPSSGAPPPS-NH2 (reading uncertain; also: 2xPEG: PEG unit not given here) [AT597] | 0 | 79.4 | 81 | 7.1 |
| TFISDYK([PEG-PEG-γGlu-C18 diacid])IAMDKIHQQDFVNWLLAGGPSSGAPPPS (not fully specified (C-terminus); reading uncertain) [AT602] | 0 | 35.5 | 100 | 7.5 |
| B4 | 0 | 1.47 | 100 | 8.8 |
| B5 | 0 | 6.31 | 88 | 8.2 |
| B6 | 0 | 1.08 | 100 | 9 |
